# Numbered stars: 1 amine (or outer) side, 2 acyl side, 3 side chain; on linkers, the order of the positions; unused ones are H or OH. Side chains are listed from the residue outwards. Ends that are not written are not given here. * marks the point of attachment. C20 diacid = O=C(O)CCCCCCCCCCCCCCCCCCC(=O)*; γGlu = O=C(O)[C@H](CCC(=O)[*:2])N[*:1]
# T1: human calcitonin receptor (human, UniProt P30988 25-474)
# T1 construct: whole, on cells; also called hCT-R; hCTR
# T1 sequence (looked up): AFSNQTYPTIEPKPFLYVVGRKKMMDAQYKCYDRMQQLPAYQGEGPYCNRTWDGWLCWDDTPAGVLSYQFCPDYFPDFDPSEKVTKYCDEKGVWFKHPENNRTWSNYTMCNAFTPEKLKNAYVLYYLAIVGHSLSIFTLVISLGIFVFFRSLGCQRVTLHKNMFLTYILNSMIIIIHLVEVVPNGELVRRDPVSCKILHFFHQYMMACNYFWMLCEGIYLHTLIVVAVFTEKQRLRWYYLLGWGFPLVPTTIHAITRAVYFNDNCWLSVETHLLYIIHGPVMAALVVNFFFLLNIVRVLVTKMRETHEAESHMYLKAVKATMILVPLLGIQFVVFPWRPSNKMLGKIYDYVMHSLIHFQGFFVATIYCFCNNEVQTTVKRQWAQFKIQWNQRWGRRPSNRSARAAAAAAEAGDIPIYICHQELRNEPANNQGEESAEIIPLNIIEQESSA
# Molecular target: T1, human calcitonin receptor
# Test: whole-cell competition vs 125I-human calcitonin (Assay VIIa)
# Method in brief: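 BHK tk'ts 13 cells stably co-expressing human calcitonin receptor and a CRE-luciferase reporter, seeded overnight at 37 °C. Bound tracer counted by scintillation after cold HBSS washes and NaOH/SDS lysis; IC₅₀ from one-site competition fit taken as receptor affinity.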
row,Binder,IC50
1,"{C20 diacid-γGlu}-ASGLSTATLGRLSQELHELQTYPPTETGSGTY-NH2 (SMILES CC(C)C[C@H](NC(=O)CNC(=O)[C@H](CO)NC(=O)[C@H](C)NC(=O)CC[C@H](NC(=O)CCCCCCCCCCCCCCCCCCC(=O)O)C(=O)O)C(=O)N[C@@H](CO)C(=O)N[C@H](C(=O)N[C@@H](C)C(=O)N[C@H](C(=O)N[C@@H](CC(C)C)C(=O)NCC(=O)N[C@@H](CCCNC(=N)N)C(=O)N[C@@H](CC(C)C)C(=O)N[C@@H](CO)C(=O)N[C@@H](CCC(N)=O)C(=O)N[C@@H](CCC(=O)O)C(=O)N[C@@H](CC(C)C)C(=O)N[C@@H](Cc1c[nH]cn1)C(=O)N[C@@H](CCC(=O)O)C(=O)N[C@@H](CC(C)C)C(=O)N[C@@H](CCC(N)=O)C(=O)N[C@H](C(=O)N[C@@H](Cc1ccc(O)cc1)C(=O)N1CCC[C@H]1C(=O)N1CCC[C@H]1C(=O)N[C@H](C(=O)N[C@@H](CCC(=O)O)C(=O)N[C@H](C(=O)NCC(=O)N[C@@H](CO)C(=O)NCC(=O)N[C@H](C(=O)N[C@@H](Cc1ccc(O)cc1)C(N)=O)[C@@H](C)O)[C@@H](C)O)[C@@H](C)O)[C@@H](C)O)[C@@H](C)O)[C@@H](C)O) [[N-terminal(C20 diacid-gGlu), des1, 4G, 9T, 15Q, 21Q, 23Y, 25P, 30S, 31G, 32T, 33Y]mimylin]",0.2 nM
2,"{C20 diacid-γGlu}-ASGLSTATLGRLSQELHELQTYPRTETGSGTY-NH2 [[N-terminal(C20 diacid-gGlu), des1, 4G, 9T, 15Q, 21Q, 23Y, 30S, 31G, 32T, 33Y]mimylin]",0.312 nM
3,"{C20 diacid-γGlu}-ASGLSTAVLGRLSQELHELQTYPRTETGSATY-NH2 (SMILES CC(C)C[C@H](NC(=O)CNC(=O)[C@H](CO)NC(=O)[C@H](C)NC(=O)CC[C@H](NC(=O)CCCCCCCCCCCCCCCCCCC(=O)O)C(=O)O)C(=O)N[C@@H](CO)C(=O)N[C@H](C(=O)N[C@@H](C)C(=O)N[C@H](C(=O)N[C@@H](CC(C)C)C(=O)NCC(=O)N[C@@H](CCCNC(=N)N)C(=O)N[C@@H](CC(C)C)C(=O)N[C@@H](CO)C(=O)N[C@@H](CCC(N)=O)C(=O)N[C@@H](CCC(=O)O)C(=O)N[C@@H](CC(C)C)C(=O)N[C@@H](Cc1c[nH]cn1)C(=O)N[C@@H](CCC(=O)O)C(=O)N[C@@H](CC(C)C)C(=O)N[C@@H](CCC(N)=O)C(=O)N[C@H](C(=O)N[C@@H](Cc1ccc(O)cc1)C(=O)N1CCC[C@H]1C(=O)N[C@@H](CCCNC(=N)N)C(=O)N[C@H](C(=O)N[C@@H](CCC(=O)O)C(=O)N[C@H](C(=O)NCC(=O)N[C@@H](CO)C(=O)N[C@@H](C)C(=O)N[C@H](C(=O)N[C@@H](Cc1ccc(O)cc1)C(N)=O)[C@@H](C)O)[C@@H](C)O)[C@@H](C)O)[C@@H](C)O)C(C)C)[C@@H](C)O) [[N-terminal(C20 diacid-gGlu), des1, 4G, 9V, 15Q, 21Q, 23Y, 30S, 31A, 32T, 33Y]mimylin]",0.318 nM
4,"{C20 diacid-γGlu}-ASGLSTAALGRLSQELHELQTYPHTETGSGTY-NH2 (SMILES CC(C)C[C@H](NC(=O)CNC(=O)[C@H](CO)NC(=O)[C@H](C)NC(=O)CC[C@H](NC(=O)CCCCCCCCCCCCCCCCCCC(=O)O)C(=O)O)C(=O)N[C@@H](CO)C(=O)N[C@H](C(=O)N[C@@H](C)C(=O)N[C@@H](C)C(=O)N[C@@H](CC(C)C)C(=O)NCC(=O)N[C@@H](CCCNC(=N)N)C(=O)N[C@@H](CC(C)C)C(=O)N[C@@H](CO)C(=O)N[C@@H](CCC(N)=O)C(=O)N[C@@H](CCC(=O)O)C(=O)N[C@@H](CC(C)C)C(=O)N[C@@H](Cc1c[nH]cn1)C(=O)N[C@@H](CCC(=O)O)C(=O)N[C@@H](CC(C)C)C(=O)N[C@@H](CCC(N)=O)C(=O)N[C@H](C(=O)N[C@@H](Cc1ccc(O)cc1)C(=O)N1CCC[C@H]1C(=O)N[C@@H](Cc1c[nH]cn1)C(=O)N[C@H](C(=O)N[C@@H](CCC(=O)O)C(=O)N[C@H](C(=O)NCC(=O)N[C@@H](CO)C(=O)NCC(=O)N[C@H](C(=O)N[C@@H](Cc1ccc(O)cc1)C(N)=O)[C@@H](C)O)[C@@H](C)O)[C@@H](C)O)[C@@H](C)O)[C@@H](C)O) [[N-terminal(C20 diacid-gGlu), des1, 4G, 15Q, 21Q, 23Y, 25H, 30S, 31G, 32T, 33Y]mimylin]",0.45 nM
5,"{C20 diacid-γGlu}-ASGLSTAALGRLSTELHELETYPRTETGSGTY-NH2 (SMILES CC(C)C[C@H](NC(=O)CNC(=O)[C@H](CO)NC(=O)[C@H](C)NC(=O)CC[C@H](NC(=O)CCCCCCCCCCCCCCCCCCC(=O)O)C(=O)O)C(=O)N[C@@H](CO)C(=O)N[C@H](C(=O)N[C@@H](C)C(=O)N[C@@H](C)C(=O)N[C@@H](CC(C)C)C(=O)NCC(=O)N[C@@H](CCCNC(=N)N)C(=O)N[C@@H](CC(C)C)C(=O)N[C@@H](CO)C(=O)N[C@H](C(=O)N[C@@H](CCC(=O)O)C(=O)N[C@@H](CC(C)C)C(=O)N[C@@H](Cc1c[nH]cn1)C(=O)N[C@@H](CCC(=O)O)C(=O)N[C@@H](CC(C)C)C(=O)N[C@@H](CCC(=O)O)C(=O)N[C@H](C(=O)N[C@@H](Cc1ccc(O)cc1)C(=O)N1CCC[C@H]1C(=O)N[C@@H](CCCNC(=N)N)C(=O)N[C@H](C(=O)N[C@@H](CCC(=O)O)C(=O)N[C@H](C(=O)NCC(=O)N[C@@H](CO)C(=O)NCC(=O)N[C@H](C(=O)N[C@@H](Cc1ccc(O)cc1)C(N)=O)[C@@H](C)O)[C@@H](C)O)[C@@H](C)O)[C@@H](C)O)[C@@H](C)O)[C@@H](C)O) [[N-terminal(C20 diacid-gGlu), des1, 4G, 15T, 21E, 23Y, 30S, 31G, 32T, 33Y]mimylin]",0.547 nM
6,"{C20 diacid-γGlu}-ASELSTAVLGRLSQELHELQTYPRTETGSGTY-NH2 (SMILES CC(C)C[C@H](NC(=O)[C@H](CCCNC(=N)N)NC(=O)CNC(=O)[C@H](CC(C)C)NC(=O)[C@@H](NC(=O)[C@H](C)NC(=O)[C@@H](NC(=O)[C@H](CO)NC(=O)[C@H](CC(C)C)NC(=O)[C@H](CCC(=O)O)NC(=O)[C@H](CO)NC(=O)[C@H](C)NC(=O)CC[C@H](NC(=O)CCCCCCCCCCCCCCCCCCC(=O)O)C(=O)O)[C@@H](C)O)C(C)C)C(=O)N[C@@H](CO)C(=O)N[C@@H](CCC(N)=O)C(=O)N[C@@H](CCC(=O)O)C(=O)N[C@@H](CC(C)C)C(=O)N[C@@H](Cc1c[nH]cn1)C(=O)N[C@@H](CCC(=O)O)C(=O)N[C@@H](CC(C)C)C(=O)N[C@@H](CCC(N)=O)C(=O)N[C@H](C(=O)N[C@@H](Cc1ccc(O)cc1)C(=O)N1CCC[C@H]1C(=O)N[C@@H](CCCNC(=N)N)C(=O)N[C@H](C(=O)N[C@@H](CCC(=O)O)C(=O)N[C@H](C(=O)NCC(=O)N[C@@H](CO)C(=O)NCC(=O)N[C@H](C(=O)N[C@@H](Cc1ccc(O)cc1)C(N)=O)[C@@H](C)O)[C@@H](C)O)[C@@H](C)O)[C@@H](C)O) [[N-terminal(C20 diacid-gGlu), des1, 9V, 15Q, 21Q, 23Y, 30S, 31G, 32T, 33Y]mimylin]",0.326 nM
7,"LSGLSTAVLGRLSQELHELQTYPRTETGSQTY-NH2 (backbone without side chain) [[des1, 2L, 4G, 9V, 15Q, 21Q, 23Y, 30S, 31Q, 32T, 33Y]mimylin]",0.959 nM
8,"ASGLSTAALGRLSQELHELQTYPRTETGSK([γGlu-C20 diacid])TY-NH2 (N-terminus assumed; SMILES CC(C)C[C@H](NC(=O)CNC(=O)[C@H](CO)NC(=O)[C@H](C)N)C(=O)N[C@@H](CO)C(=O)N[C@H](C(=O)N[C@@H](C)C(=O)N[C@@H](C)C(=O)N[C@@H](CC(C)C)C(=O)NCC(=O)N[C@@H](CCCNC(=N)N)C(=O)N[C@@H](CC(C)C)C(=O)N[C@@H](CO)C(=O)N[C@@H](CCC(N)=O)C(=O)N[C@@H](CCC(=O)O)C(=O)N[C@@H](CC(C)C)C(=O)N[C@@H](Cc1c[nH]cn1)C(=O)N[C@@H](CCC(=O)O)C(=O)N[C@@H](CC(C)C)C(=O)N[C@@H](CCC(N)=O)C(=O)N[C@H](C(=O)N[C@@H](Cc1ccc(O)cc1)C(=O)N1CCC[C@H]1C(=O)N[C@@H](CCCNC(=N)N)C(=O)N[C@H](C(=O)N[C@@H](CCC(=O)O)C(=O)N[C@H](C(=O)NCC(=O)N[C@@H](CO)C(=O)N[C@@H](CCCCNC(=O)CC[C@H](NC(=O)CCCCCCCCCCCCCCCCCCC(=O)O)C(=O)O)C(=O)N[C@H](C(=O)N[C@@H](Cc1ccc(O)cc1)C(N)=O)[C@@H](C)O)[C@@H](C)O)[C@@H](C)O)[C@@H](C)O)[C@@H](C)O) [[des1, 4G, 15Q, 21Q, 23Y, 30S, 31K(C20 diacid-gGlu), 32T, 33Y]mimylin]",1.27 nM
9,"{C20 diacid-γGlu}-EASQLSTAVLGRLSQELHELQTYPRTGTGSGTY-NH2 (SMILES CC(C)C[C@H](NC(=O)[C@H](CCCNC(=N)N)NC(=O)CNC(=O)[C@H](CC(C)C)NC(=O)[C@@H](NC(=O)[C@H](C)NC(=O)[C@@H](NC(=O)[C@H](CO)NC(=O)[C@H](CC(C)C)NC(=O)[C@H](CCC(N)=O)NC(=O)[C@H](CO)NC(=O)[C@H](C)NC(=O)[C@H](CCC(=O)O)NC(=O)CC[C@H](NC(=O)CCCCCCCCCCCCCCCCCCC(=O)O)C(=O)O)[C@@H](C)O)C(C)C)C(=O)N[C@@H](CO)C(=O)N[C@@H](CCC(N)=O)C(=O)N[C@@H](CCC(=O)O)C(=O)N[C@@H](CC(C)C)C(=O)N[C@@H](Cc1c[nH]cn1)C(=O)N[C@@H](CCC(=O)O)C(=O)N[C@@H](CC(C)C)C(=O)N[C@@H](CCC(N)=O)C(=O)N[C@H](C(=O)N[C@@H](Cc1ccc(O)cc1)C(=O)N1CCC[C@H]1C(=O)N[C@@H](CCCNC(=N)N)C(=O)N[C@H](C(=O)NCC(=O)N[C@H](C(=O)NCC(=O)N[C@@H](CO)C(=O)NCC(=O)N[C@H](C(=O)N[C@@H](Cc1ccc(O)cc1)C(N)=O)[C@@H](C)O)[C@@H](C)O)[C@@H](C)O)[C@@H](C)O) [[N-terminal(C20 diacid-gGlu), 4Q, 9V, 15Q, 21Q, 23Y, 27G, 30S, 31G, 32T, 33Y]mimylin]",0.796 nM

# Reference: patent US20160272683A1 (Novo Nordisk, published 2016)
